Where a chain is given by its changes, count along the chain named. Names and notes keep the numbering of the source. Values joined by “and” are separate entries in the source; they are usually repeats but may differ in a detail not shown here. Equal entries are not always repeated. One block for each binder: values may come before it.
Key:
[1] = target: T1, human EphA2 expressed on HKB-11 cells (human, UniProt P29317 24-976); assay: flow cytometry on HKB-11 cells overexpressing EphA2; lot HE-07-PV32
T1 construct: The HKB-11 cells were transduced to overexpress EphA2; also called HKB-11 EphA2+ cell line
Procedure: (§1) The binding affinity of EphA2 antibodies on cells was evaluated using flow cytometry (FACS). […] Cell lines were cultured in media that is optimal for their growth at 5% CO₂, 37° C. in a tissue culture incubator. Cell viability and cell density were determined using a cell counter (Vi-Cell XR Cell Viability Analyzer, Beckman Coulter). […] All subsequent steps were performed on ice and in ice cold FACS buffer to prevent internalization of the receptor. Cells were resuspended in 100 μL of FACS buffer containing an 11-point serial dilution of test antibodies at final concentrations of 200 nM-0.003 nM. Cells were incubated at 4° C. for 45 minutes. Following incubation, cells were washed three times in ice cold PBS at 1000 rpm for 5 minutes with 200 μL FACS buffer. […] Cells were incubated in the dark at 4° C. for 45 minutes. Following incubation, cells were washed three times in ice cold PBS at 1000 rpm for 5 minutes with 200 μL FACS buffer. Cells were then resuspended in 100 μL FACS buffer containing DAPI (ThermoFisher, #D1306) staining followed by readout via flow cytometry (MACSQuant® Analyzer 10). Data was analyzed using FlowJo v10.8.1 to obtain MFI (Mean Fluorescence Intensity) on live cells. EC₅₀ values were calculated using the GraphPad Prism 9 software. There were three rounds of experiments performed to evaluate three groupings of EphA2 antibodies. […]

[2] = target: T1, human EphA2 expressed on HKB-11 cells; assay: flow cytometry on HKB-11 cells overexpressing EphA2; lot ZF-74-CQ11
Procedure: as §1

[3] = target: T1, human EphA2 expressed on HKB-11 cells; assay: KinExA apparent (avid) equilibrium KD on human EphA2 HKB-11 cells
Procedure: (§2) Free antibody in equilibrium titration reactions were measured by KinExA using a KinExA 3200, Autosampler (Sapidyne). Data were analyzed using KinExA Pro 4-5-X (Sapidyne).
(§3) Anti-EphA2 antibody was diluted in PBS with 10% HI-FBS and 0.04% sodium azide to 2× the final concentration of binding sites needed for equilibrium titration. […] Cells and antibody were combined 1:1 in an eppendorf tube and incubated overnight, 4° C., rotating. Buffer and antibody alone samples were included. Cells were pelleted and supernatants were transferred to a 2 ml 96-well deep well plate covered with pierceable film.
Data were analyzed by n-Curve Analysis.

[4] = target: T2, cyno EphA2 ectodomain (cyno, UniProt Q1KL86 25-537); assay: SPR (Biacore 8k), Fab-capture, 37C, 1:1 model;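 further: Anti-EphA2 IgG captured via immobilized anti-Fab, soluble EphA2 ectodomain as analyte at six twofold dilutions from 50 nM, HBS-EP+ pH 7.6 running buffer, double reference subtraction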
T2 construct: extracellular domain
Procedure: (§4) A human Fab capture method was utilized in order to determine kinetics for the antibodies. […] Each channel has two flow cells. The reference flow cell contained only immobilized anti-Fab, whereas the reaction flow cell captured anti-EphA2 IgG through anti-Fab. HBS-EP+ Buffer, pH 7.6 was used as the running buffer. The soluble human, mouse and cyno EphA2 ectodomain flowed over both flow cells on 8 channels. The EphA2 ectodomain concentration started at 50 nM and was serially diluted at one part to one part (1:1) in the running buffer for six concentrations. The analysis chamber was kept at 37° C. Regeneration was performed at the end of each sample washing with the solution of 10 mM Glycine-HCl, pH 2.1 provided in the kit.
(§5) The data were analysed using the Biacore Insight Evaluation Software. Double reference subtraction was completed to generate the final data. The raw data was fitted to a 1:1 binding model, with parameter(s) Rₘₐₓ set to local.

[5] = target: T3, mouse EphA2 ectodomain (mouse, UniProt Q03145 26-538); assay: SPR (Biacore 8k), Fab-capture, 37C, 1:1 model;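 further: Anti-EphA2 IgG captured via immobilized anti-Fab, soluble EphA2 ectodomain as analyte at six twofold dilutions from 50 nM, HBS-EP+ pH 7.6 running buffer, double reference subtraction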
T3 construct: extracellular domain
Procedure: as §4, §5

[6] = target: T4, human EphA2 ectodomain (human, UniProt P29317 24-537); assay: SPR (Biacore 8k), Fab-capture, 37C, 1:1 model;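 further: Anti-EphA2 IgG captured via immobilized anti-Fab, soluble EphA2 ectodomain as analyte at six twofold dilutions from 50 nM, HBS-EP+ pH 7.6 running buffer, double reference subtraction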
T4 construct: Soluble ectodomain used as the SPR analyte
Procedure: as §4, §5

[7] = target: T1, human EphA2 expressed on HKB-11 cells; assay: flow cytometry on HKB-11 cells overexpressing EphA2; lot ZE-39-AG34
Procedure: as §1

[8] = target: T1, human EphA2 expressed on HKB-11 cells; assay: flow cytometry on HKB-11 cells overexpressing EphA2; lot HA-13-AF39
Procedure: as §1

[9] = target: T1, human EphA2 expressed on HKB-11 cells; assay: flow cytometry on HKB-11 cells overexpressing EphA2; lot DA-62-QP06
Procedure: as §1

[10] = target: T1, human EphA2 expressed on HKB-11 cells; assay: flow cytometry on HKB-11 cells overexpressing EphA2; lot DC-69-ID09
Procedure: as §1

[11] = target: T2, cyno EphA2 ectodomain; assay: SPR (Biacore 8k), Fab-capture, 37C, 1:1 model; *low binding signal;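 on koff: Anti-EphA2 IgG captured via immobilized anti-Fab, soluble EphA2 ectodomain as analyte at six twofold dilutions from 50 nM, HBS-EP+ pH 7.6 running buffer, double reference subtraction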
Procedure: as §4, §5

[12] = target: T3, mouse EphA2 ectodomain; assay: as above
Procedure: as §4, §5

[13] = target: T4, human EphA2 ectodomain; assay: as above
Procedure: as §4, §5

[14] = target: T1, human EphA2 expressed on HKB-11 cells; assay: flow cytometry on HKB-11 cells overexpressing EphA2; lot HD-58-MP05
Procedure: as §1

[15] = target: T1, human EphA2 expressed on HKB-11 cells; assay: KinExA avid equilibrium KD on cells, average of replicates
Procedure: as §2, §3
Data were analyzed by n-Curve Analysis.

[16] = target: T1, human EphA2 expressed on HKB-11 cells; assay: flow cytometry on HKB-11 cells overexpressing EphA2; lot PE-07-PN32
Procedure: as §1

[17] = target: T1, human EphA2 expressed on HKB-11 cells; assay: flow cytometry on HKB-11 cells overexpressing EphA2; lot DE-39-AD34
Procedure: as §1

[18] = target: T1, human EphA2 expressed on HKB-11 cells; assay: flow cytometry on HKB-11 cells overexpressing EphA2; lot FE-76-NO13
Procedure: as §1

[19] = target: T1, human EphA2 expressed on HKB-11 cells; assay: flow cytometry on HKB-11 cells overexpressing EphA2; lot PA-62-QD06
Procedure: as §1

[20] = target: T2, cyno EphA2 ectodomain; assay: SPR (Biacore 8k), Fab-capture, 37C
Procedure: as §4, §5

[21] = target: T3, mouse EphA2 ectodomain; assay: SPR (Biacore 8k), Fab-capture, 37C
Procedure: as §4, §5

T1 sequence (P29317 24-976 limits assumed): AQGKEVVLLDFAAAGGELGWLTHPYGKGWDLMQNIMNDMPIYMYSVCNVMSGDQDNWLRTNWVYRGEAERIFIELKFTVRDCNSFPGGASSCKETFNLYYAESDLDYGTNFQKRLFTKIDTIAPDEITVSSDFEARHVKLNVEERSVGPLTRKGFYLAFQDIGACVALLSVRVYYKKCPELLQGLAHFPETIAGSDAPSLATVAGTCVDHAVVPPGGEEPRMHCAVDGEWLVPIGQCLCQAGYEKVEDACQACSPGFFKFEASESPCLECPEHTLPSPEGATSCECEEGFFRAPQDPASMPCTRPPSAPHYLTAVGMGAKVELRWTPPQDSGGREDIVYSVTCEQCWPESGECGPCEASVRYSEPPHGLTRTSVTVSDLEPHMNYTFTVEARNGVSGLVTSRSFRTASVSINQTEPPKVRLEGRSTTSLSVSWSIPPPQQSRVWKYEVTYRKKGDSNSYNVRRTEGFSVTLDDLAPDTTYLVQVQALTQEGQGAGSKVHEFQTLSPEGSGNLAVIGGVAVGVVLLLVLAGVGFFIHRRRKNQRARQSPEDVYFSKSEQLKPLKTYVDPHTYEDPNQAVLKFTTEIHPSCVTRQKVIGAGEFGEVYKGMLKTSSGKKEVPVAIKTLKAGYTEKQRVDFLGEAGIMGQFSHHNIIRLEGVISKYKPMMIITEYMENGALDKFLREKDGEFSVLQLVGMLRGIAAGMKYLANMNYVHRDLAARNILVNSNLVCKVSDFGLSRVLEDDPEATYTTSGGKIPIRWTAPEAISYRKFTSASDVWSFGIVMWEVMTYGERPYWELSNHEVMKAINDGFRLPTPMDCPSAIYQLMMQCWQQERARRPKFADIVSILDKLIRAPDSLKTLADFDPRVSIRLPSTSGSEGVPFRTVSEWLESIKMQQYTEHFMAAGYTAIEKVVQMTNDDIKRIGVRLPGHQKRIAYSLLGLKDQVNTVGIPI
T4 sequence (P29317 24-537 limits assumed): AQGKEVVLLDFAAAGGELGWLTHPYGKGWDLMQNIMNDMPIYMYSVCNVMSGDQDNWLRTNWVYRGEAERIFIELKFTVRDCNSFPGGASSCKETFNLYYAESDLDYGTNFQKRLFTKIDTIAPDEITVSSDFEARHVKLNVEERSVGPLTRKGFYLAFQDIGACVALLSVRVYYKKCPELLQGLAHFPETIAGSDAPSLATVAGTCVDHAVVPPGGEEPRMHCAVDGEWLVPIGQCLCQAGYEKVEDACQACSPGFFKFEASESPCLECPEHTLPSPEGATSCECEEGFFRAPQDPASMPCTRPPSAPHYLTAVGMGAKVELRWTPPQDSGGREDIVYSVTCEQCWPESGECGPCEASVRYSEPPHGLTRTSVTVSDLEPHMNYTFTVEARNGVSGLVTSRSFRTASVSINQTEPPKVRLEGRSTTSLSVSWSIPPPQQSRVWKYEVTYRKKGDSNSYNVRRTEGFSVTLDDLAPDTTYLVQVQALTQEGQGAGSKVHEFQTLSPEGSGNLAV
T3 sequence (Q03145 26-538): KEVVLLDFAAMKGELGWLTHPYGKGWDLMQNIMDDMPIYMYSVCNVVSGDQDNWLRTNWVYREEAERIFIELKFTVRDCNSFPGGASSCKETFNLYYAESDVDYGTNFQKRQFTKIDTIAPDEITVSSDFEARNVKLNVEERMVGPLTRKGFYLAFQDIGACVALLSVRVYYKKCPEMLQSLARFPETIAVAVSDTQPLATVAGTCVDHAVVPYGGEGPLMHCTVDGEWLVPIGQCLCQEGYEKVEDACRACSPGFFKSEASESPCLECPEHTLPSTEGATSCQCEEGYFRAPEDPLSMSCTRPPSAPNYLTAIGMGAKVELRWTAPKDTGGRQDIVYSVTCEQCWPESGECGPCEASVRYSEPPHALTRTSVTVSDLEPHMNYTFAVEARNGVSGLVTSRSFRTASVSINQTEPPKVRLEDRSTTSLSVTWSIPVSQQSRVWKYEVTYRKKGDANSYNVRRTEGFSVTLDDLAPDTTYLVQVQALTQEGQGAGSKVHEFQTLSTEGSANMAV
T2 sequence (Q1KL86 25-537): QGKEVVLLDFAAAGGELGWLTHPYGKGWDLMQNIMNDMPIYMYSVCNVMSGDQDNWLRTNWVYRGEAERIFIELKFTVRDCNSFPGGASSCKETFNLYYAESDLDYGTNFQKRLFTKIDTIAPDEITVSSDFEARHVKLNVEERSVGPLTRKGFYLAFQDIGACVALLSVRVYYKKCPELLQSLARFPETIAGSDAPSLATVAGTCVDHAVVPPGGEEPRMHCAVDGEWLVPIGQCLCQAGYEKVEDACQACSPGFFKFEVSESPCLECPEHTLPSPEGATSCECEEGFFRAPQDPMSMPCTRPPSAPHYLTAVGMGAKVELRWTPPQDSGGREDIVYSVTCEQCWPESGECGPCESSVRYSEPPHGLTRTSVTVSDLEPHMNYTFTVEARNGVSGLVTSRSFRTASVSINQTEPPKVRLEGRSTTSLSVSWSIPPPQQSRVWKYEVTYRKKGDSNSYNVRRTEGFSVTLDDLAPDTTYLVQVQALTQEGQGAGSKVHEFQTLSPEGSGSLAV

B2: anti-EphA2 E152C S375C 1C1 (LC G77S) hIgG1 (WT Heavy Chain) (antibody, V domains shown)
VH: EVQLLESGGGLVQPGGSLRLSCAASGFTFSHYMMAWVRQAPGKGLEWVSRIGPSGGPTHYADSVKGRFTISRDNSKNTLYLQMNSLRAEDTAVYYCAGYDSGYDYVAVAGPAEYFQHWGQGTLVTVSS
VL: DIQMTQSPSSLSASVGDRVTITCRASQSISTWLAWYQQKPGKAPKLLIYKASNLHTGVPSRFSGSGSGTEFSLTISSLQPDDFATYYCQQYNSYSRTFGQGTKVEIKR
notes: also called 1C1 G77S IgG; ZF-74-CQ11
EC50 [2]: 0.00373 µM
Kd [3]: 0.000171 µM
Kd [4]: 0.222 µM
Kd [5]: 0.369 µM
Kd [6]: 0.186 µM
EC50 [7]: 0.00221 µM

B4: anti-EphA2 E152C S375C 1C1 (LC S93Q) hIgG1 (WT Heavy Chain) (antibody, V domains shown)
VH: B2 VH
VL: B2 VL with S77G, S93Q
notes: also called DA-62-QP06
EC50 [9]: 0.00213 µM
Kd [4]: 0.272 µM
koff [4]: 0.338 s⁻¹
kon [4]: 1.24e+06 M⁻¹ s⁻¹
Kd [5]: 0.335 µM
koff [5]: 0.0552 s⁻¹
kon [5]: 165000 M⁻¹ s⁻¹
Kd [6]: 0.237 µM
koff [6]: 0.0635 s⁻¹
kon [6]: 268000 M⁻¹ s⁻¹

B5: anti-EphA2 E152C S375C 1C1 (LC S10T_S72T_G77S) hIgG1 (WT Heavy Chain) (antibody, V domains shown)
VH: B2 VH
VL: B2 VL with S10T, S72T
notes: also called 3x germ
koff [4]: 0.121 s⁻¹
kon [4]: 886000 M⁻¹ s⁻¹
koff [5]: 0.0635 s⁻¹
kon [5]: 193000 M⁻¹ s⁻¹
koff [6]: 0.0996 s⁻¹
kon [6]: 250000 M⁻¹ s⁻¹
EC50 [10]: 0.0239 µM
Kd [11]: 0.137 µM
Kd [12]: 0.328 µM
Kd [13]: 0.398 µM

B6: anti-EphA2 E152C S375C 1C1 (LC S93A) hIgG1 (WT Heavy Chain) (antibody, V domains shown)
VH: B2 VH
VL: B2 VL with S77G, S93A
notes: also called HD-58-MP05
Kd [4]: 0.259 µM
koff [4]: 0.181 s⁻¹
kon [4]: 697000 M⁻¹ s⁻¹
Kd [5]: 0.343 µM
koff [5]: 0.0625 s⁻¹
kon [5]: 182000 M⁻¹ s⁻¹
Kd [6]: 0.265 µM
koff [6]: 0.131 s⁻¹
kon [6]: 493000 M⁻¹ s⁻¹
EC50 [14]: 0.00344 µM

B8: anti-EphA2 E152C S375C 1C1 (LC S72T) hIgG1 (WT Heavy Chain) (antibody, V domains shown)
VH: B2 VH
VL: B2 VL with S72T, S77G
notes: also called 1C1 S72T IgG; FE-76-NO13
EC50 [17]: 0.00212 µM
Kd [3]: 0.000132 µM and 0.000143 µM
Kd [4]: 0.23 µM
koff [4]: 0.17 s⁻¹
kon [4]: 737000 M⁻¹ s⁻¹
Kd [5]: 0.377 µM
koff [5]: 0.0512 s⁻¹
kon [5]: 136000 M⁻¹ s⁻¹
Kd [6]: 0.216 µM
koff [6]: 0.0518 s⁻¹
kon [6]: 240000 M⁻¹ s⁻¹
Kd [15]: 0.000137 µM
EC50 [18]: 0.00319 µM

B10: anti-EphA2 E152C S375C 1C1 (LC N92A) hIgG1 (WT Heavy Chain) (antibody, V domains shown)
VH: B2 VH
VL: B2 VL with S77G, N92A
notes: also called BC-56-WI24
binding result [20]: no binding (tested: EphA2 ectodomain titrated from 50 nM)
binding result [21]: no binding (tested: EphA2 ectodomain titrated from 50 nM)

Further lines, results first:

EC50 [1]: 0.00259 µM
B1: anti-EphA2_1C1_DAR4_LC_N92Q_G77S (antibody, human IgG1, kappa, V domains shown)
VH: B2 VH
VL: B2 VL with N92Q
notes: also called HE-07-PV32

EC50 [8]: 0.0018 µM
B3: anti-EphA2_1C1_DAR4_LC_N92Q_S72T (antibody, human IgG1, kappa, V domains shown)
VH: B2 VH
VL: B2 VL with S72T, S77G, N92Q
notes: also called HA-13-AF39

Kd [3]: 0.000124 µM and 0.000134 µM
Kd [15]: 0.000129 µM
EC50 [16]: 0.00181 µM
B7: anti-EphA2_1C1_DAR4_LC_N92Q_S72T_G77S (antibody, human IgG1, kappa, V domains shown)
VH: B2 VH
VL: B2 VL with S72T, N92Q

koff [4]: 0.105 s⁻¹
kon [4]: 428000 M⁻¹ s⁻¹
Kd [5]: 0.286 µM
koff [5]: 0.0508 s⁻¹
kon [5]: 178000 M⁻¹ s⁻¹
koff [6]: 0.0792 s⁻¹
kon [6]: 296000 M⁻¹ s⁻¹
EC50 [19]: 0.0202 µM
Kd [11]: 0.246 µM
Kd [13]: 0.268 µM
B9: anti-EphA2 E152C S375C 1C1 (LC S93V) hIgG1 (WT Heavy Chain) (antibody, V domains shown)
VH: B2 VH
VL: B2 VL with S77G, S93V
notes: also called PA-62-QD06
